Source: patent US20260028400A1 (AIMED BIO, published 2026)
Positions count from the first letter of the chain named.

B1: P015012 scFv (scFv, V domains shown)
VH: EVQLLESGGGLVQPGGSLRLSCAASGFTFSGYSMSWVRQAPGKGLEWVSGISYGGSSISYADSVKGRFTISRDNSKNTLYLQMNSLRAEDTAVYYCAKPVRRWARFRLSYDDAMDVWGQGTLVTVSS
VL: QSVLTQPPSASGTPGQRVTISCSGSSSNIGNNAVNWYQQLPGTAPKLLIYANSHRPSGVPDRFSGSKSGTSASLAISGLRSEDEADYYCGTWDSSLSGYVFGGGTKLTVL
notes: HA-tagged scFv
B2: P015021 scFv (scFv, V domains shown)
VH: EVQLLESGGGLVQPGGSLRLSCAASGFTFSSYAMSWVRQAPGKGLEWVSWISPGGGNIYYADSVKGRFTISRDNSKNTLYLQMNSLRAEDTAVYYCARSQSGFDYWGQGTLVTVSS
VL: B1 VL with A33S, N35T, A51Y, N52D, T91A, S97N
notes: HA-tagged scFv
B3: P015006 scFv (scFv, V domains shown)
VH: EVQLLESGGGLVQPGGSLRLSCAASGFTFSNYSMSWVRQAPGKGLEWVSAISHGSGSIYYADSVKGRFTISRDNSKNTLYLQMNSLRAEDTAVYYCAKPISAWSHIRMSYAYGMDVWGQGTLVTVSS
VL: QSVLTQPPSASGTPGQRVTISCTGSSSNIGSNYVSWYRQLPGTAPKLLIYSDSNRPSGVPDRFSGSKSGTSASLAISGLRSEDEADYYCATWDASLSAYVFGGGTKLTVL
notes: HA-tagged scFv
B4: P015003 scFv (scFv, V domains shown)
VH: EVQLLESGGGLVQPGGSLRLSCAASGFTFSSYAMSWVRQAPGKGLEWVSGISPGGSSKYYADSVKGRFTISRDNSKNTLYLQMNSLRAEDTAVYYCARGPHRAIDTAFDYWGQGTLVTVSS
VL: B3 VL
notes: HA-tagged scFv
B5: P015013 scFv (scFv, V domains shown)
VH: EVQLLESGGGLVQPGGSLRLSCAASGFTFSSYDMSWVRQVPGKGLEWVSWISHGGGSIYYADSVKGRFTISRDNSKNTLYLQMNSLRAEDTAVYYCARDLSNRLFTGFDYWGQGTLVAVSS
VL: B1 VL with N31S, A33S, N35Y, L47P, A51S, N52D, S94Y, S97N, G98A
notes: HA-tagged scFv
B6: P015043 scFv (scFv, V domains shown)
VH: B2 VH with S31N, A33D, G56S, N57S, R98K, S99T, Q100L, S101T, G102R
VL: B1 VL with S23T, A33N, N35S, A51Y, N52D
notes: HA-tagged scFv
B7: P015002 scFv (scFv, V domains shown)
VH: EVQLLESGGGLVQPGGSLRLSCAASGFTFSDYSMSWVRQAPGKGLEWVSGISHNGGSTYYADSVKGRFTISRDNSKNTLYLQMSSLRAEDTAVYYCARDVSRWSKTRWSYDNAMDVWGQGTLVTVSS
VL: B3 VL
notes: HA-tagged scFv
B8: P015039 scFv (scFv, V domains shown)
VH: EVQLLESGGGLVQPGGSLRLSCAASGFTFSDYAMSWVRQAPGKGLEWVSWISPGGGNTYYADSVKGRFTISRDNSKNTLYLQMNSLRAEDTAVYYCAKGALMCLSATCSSDYGMDVWGQGTLVTVSS
VL: B1 VL with S23T, N35S, A51S, N52D, S53N, H54Q, S94Y, S97N
notes: HA-tagged scFv
B9: P015010 scFv (scFv, V domains shown)
VH: EVQLLESGGGLVQPGGSLRLSCAASGFTFSNYAMSWVRQAPGKGLEWVSGISPNGSSIYYADSVKGRFTISRDNSKNTLYLQMNSLRAEDTAVYYCAKAARLSPSRNYSYAYGMDVWGQGTLVTVSS
VL: B1 VL with S23T, A33N, N35T, A51S, N52D, H54Q, S94Y, S97N
notes: HA-tagged scFv
B10: P015009 scFv (scFv, V domains shown)
VH: EVQLLESGGGLVQPGGSLRLSCAASGFTFSNYSMSWVRQAPGKGLEWVSGIYSGNSNTYYADSVKGRFTISRDNSKNTLYLQMNSLRAEDTAVYYCAKDSRATHHRWHYYDNAMDVWGQGTLVTVSS
VL: B3 VL with A90G, A94S, A98G
notes: HA-tagged scFv
B11: P015005 scFv (scFv, V domains shown)
VH: B7 VH
VL: B1 VL with N31S, A33Y, A51S, N52D, T91S, S97N, G98A, F101L
notes: HA-tagged scFv
B12: P015038 scFv (scFv, V domains shown)
VH: B9 VH with L5Q, Q13L, S30N
VL: B1 VL with S23T, A33N, N35T, A51S, N52D, H54Q, S94Y, S97N
notes: HA-tagged scFv
B13: P015041 scFv (scFv, V domains shown)
VH: B9 VH
VL: B1 VL with S23T, A33N, N35T, A51S, N52D, H54Q, D93E, S94Y, S97N
notes: HA-tagged scFv
B14: P015040 scFv (scFv, V domains shown)
VH: B9 VH
VL: B1 VL with S23T, A33N, N35T, A51S, N52D, H54Q, E82K, S94Y, S97N
notes: HA-tagged scFv
B15: P015044 scFv (scFv, V domains shown)
VH: EVQLLESGGGLVQPGGSLRLSCAASGFTFSNYAMHWVRQAPGKGLEWVSIIYPDDDTRYNPSFRGRFTISRDNSKNTLYLQMNSLRAEDTAVYYCARDLLYAGDYWGQGTLVTVSS
VL: QSVLTQPPSASGTPGQRVTISCGGNNIESKAVHWYQQLPGTAPKLLIYANNKRPSGVPDRFSGSKSGTSASLAISGLRSEDEADYYCQSYDSNKVVFGGGTKLTVL
notes: HA-tagged scFv
B16: P015014 scFv (scFv, V domains shown)
VH: EVQLLESGGGLVQPGGSLRLSCAVSGFTFSSYSMSWVRQAPGKGLEWVSAISPGDSNKYYADSVKGRFTISRDNSKNTLYLQINSLRAEDTAVYYCARTFPYFDYWGQGTLVTVSS
VL: B1 VL with Q16E, G24S, N31S, A33Y, A51D, H54Q, T91S, S94D
notes: HA-tagged scFv
B17: P015042 scFv (scFv, V domains shown)
VH: EVQLLESGGGLVQPGGSLRLSCAASGFTFSDYAMSWVRQAPGKGLEWVSVISSDGGSIYYADSVKGRFTISRDNSKNTLYLQMNSLRAEDTAVYYCAKDRSRDMEVDFDYWGQGTLVTVSS
VL: B1 VL with N31S, A33Y, N35T, A51D, N52S, H54Q, S94Y
notes: HA-tagged scFv
B18: P015011 scFv (scFv, V domains shown)
VH: B9 VH with N54D, S56G, R106M
VL: B1 VL with S23T, A33Y, N35S, A51S, N52D, S94Y, S97N
notes: HA-tagged scFv
B19: P015001 scFv (scFv, V domains shown)
VH: EVQLLESGGGLAQPGGSLRLSCAASGFTFSNYDMSWVRQAPGKGPEWVSGIYSGNSNTYYADSVKGRFTISRDNSKNTLYLQMNSLRAEDTAVYYCARDLQYTEWAGFDYWGQGTLVTVSS
VL: B1 VL with N31S, A33D, N35T, A51D, N52D, H54K, G90A, T91A, S94D
notes: scFv of a phage-library clone from a bacterial extract, with HA tag

Molecular target: T1, Ig-like (human, UniProt Q01973)
T1 construct: Ig-like domain, His tag; also called Ig-like domain; human ROR1-immunoglobulin domain
Assay: scFv ELISA on coated domain, anti-HA-HRP, OD450
Description: (§1) Thereafter, the plate was treated with each scFv and reacted for 2 hours, followed by washing four times using PBST and distilled water. After binding at room temperature for 1 hour using an HRP-conjugated anti-HA antibody (Roche, 12013819001, Anti-HA-Peroxidase, High Affinity) capable of binding to the HA tag, washing was performed six times using PBST and distilled water. After color development by adding TMB substrate solution (Thermo Scientific, 34029, 1-Step™ Ultra TMB-ELISA Substrate Solution), the color reaction was stopped with stop solution (Invitrogen, SS04, ELISA Stop Solution), and the absorbance was measured at OD 450 nm. The scFv binding to each domain was analyzed through ELISA.

T1 sequence (Q01973 39-151 limits assumed): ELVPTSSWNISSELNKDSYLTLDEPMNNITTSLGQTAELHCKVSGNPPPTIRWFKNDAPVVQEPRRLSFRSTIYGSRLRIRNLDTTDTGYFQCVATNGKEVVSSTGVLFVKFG

Binder	binding result
B1	no binding
B2	no binding
B3	no binding
B4	no binding
B5	no binding
B6	no binding
B7	no binding
B8	binds
B9	binds
B10	no binding
B11	no binding
B12	binds
B13	binds
B14	binds

Molecular target: T2, FZD+KRD (human, UniProt Q01973)
T2 construct: frizzled plus kringle domains, His tag; also called FK domain; human ROR1-frizzled-kringle domain
Assay: scFv ELISA on coated domain, anti-HA-HRP, OD450
Description: as §1

T2 sequence (Q01973 165-395 limits assumed): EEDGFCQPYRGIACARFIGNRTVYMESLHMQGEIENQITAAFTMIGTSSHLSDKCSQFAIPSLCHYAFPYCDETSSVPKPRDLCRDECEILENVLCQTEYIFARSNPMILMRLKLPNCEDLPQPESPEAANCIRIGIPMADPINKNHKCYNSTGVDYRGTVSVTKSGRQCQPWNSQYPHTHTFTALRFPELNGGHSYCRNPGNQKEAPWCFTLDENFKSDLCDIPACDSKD

Binder	binding result
B15	no binding
B16	no binding
B8	no binding
B17	no binding

Molecular target: T3, FZD (human, UniProt Q01973)
T3 construct: frizzled domain, His tag; also called Frizzled domain; human ROR1-frizzled domain
Assay: scFv ELISA on coated domain, anti-HA-HRP, OD450
Description: as §1

T3 sequence (Q01973 165-305 limits assumed): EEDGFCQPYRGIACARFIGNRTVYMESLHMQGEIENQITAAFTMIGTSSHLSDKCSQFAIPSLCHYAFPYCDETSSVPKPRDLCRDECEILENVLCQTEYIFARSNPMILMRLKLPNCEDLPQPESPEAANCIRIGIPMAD

Binder	binding result
B15	no binding
B3	binds
B18	no binding
B5	binds
B19	no binding
B17	no binding
B10	binds
